Broadly, the Kd is a measure of binding affinity in units of concentration. Read a low Kd as a tighter complex.

Consider 46 molecules from paper PMC4283936.

The chains are these.
B1: hsp (dsDNA)
DNA 1: CCGGACACAGCTAACTCACAACGAAGCA
DNA 2: TGCTTCGTTGTGAGTTAGCTGTGTCCGG
B2: devR -116 (dsDNA)
DNA 1: CAGCTGTTCGTCGCGGACTCACACTCCGCGCAC
DNA 2: GTGCGCGGAGTGTGAGTCCGCGACGAACAGCTG
B3: Rv2010 (dsDNA)
DNA 1: GAACTCGTGGCCGCCGCACAGCGGATGT
DNA 2: ACATCCGCTGTGCGGCGGCCACGAGTTC
B4: devR -155 (dsDNA)
DNA 1: GTGCGTGCCGTCATCTGGCCGCCAACGCAA
DNA 2: TTGCGTTGGCGGCCAGATGACGGCACGCAC
B5: Rv1517 (dsDNA)
DNA 1: CATTTTTCAGCAATTTCTCAGTAACGCT
DNA 2: AGCGTTACTGAGAAATTGCTGAAAAATG
B6: sirA (dsDNA)
DNA 1: CGTCTCCCAGCGGATTCCCGGGTCGGCC
DNA 2: GGCCGACCCGGGAATCCGCTGGGAGACG
B7: devR -146 (dsDNA)
DNA 1: CGTCATCTGGCCGCCAACGCAAAGCCGGGTCA
DNA 2: TGACCCGGCTTTGCGTTGGCGGCCAGATGACG
B8: Rv3312a (dsDNA)
DNA 1: TGGGTCACAGCGAGTAATCAGCAAGTTC
DNA 2: GAACTTGCTGATTACTCGCTGTGACCCA
B9: pks3 -653 (dsDNA)
DNA 1: GGCGGCCCACTGCGCCTGCACCGCCGTGTTGG
DNA 2: CCAACACGGCGGTGCAGGCGCAGTGGGCCGCC
B10: papA4 (dsDNA)
DNA 1: AGTATCACTGCCCGATCACCGGTCGCCC
DNA 2: GGGCGACCGGTGATCGGGCAGTGATACT
B11: Rv3881c (dsDNA)
DNA 1: ATGGTCACAGTCGGGCCACAGTTCGAG
DNA 2: CTCGAACTGTGGCCCGACTGTGACCAT
B12: PPE19 (dsDNA)
DNA 1: CCGTTCTCCGGACAATCACGGCCCGACC
DNA 2: GGTCGGGCCGTGATTGTCCGGAGAACGG
B13: wbbL2 (dsDNA)
DNA 1: TGGATCGCTGCCGATACACCGCCGATTT
DNA 2: AAATCGGCGGTGTATCGGCAGCGATCCA
B14: icl +20 (dsDNA)
DNA 1: ACCCCGAAGAGCGCGGAGCAGATCCAGCAGG
DNA 2: CCTGCTGGATCTGCTCCGCGCTCTTCGGGGT
B15: Rv3877 (dsDNA)
DNA 1: CTCGGCGCAGCGCGCGCTCAGCGACGCC
DNA 2: GGCGTCGCTGAGCGCGCGCTGCGCCGAG
B16: aroG (dsDNA)
DNA 1: TTCGTCTCATCACGTCCACAGACGATGC
DNA 2: GCATCGTCTGTGGACGTGATGAGACGAA
B17: cyp123 (dsDNA)
DNA 1: AGATCCACCGCCGCATCACATCGGCGAT
DNA 2: ATCGCCGATGTGATGCGGCGGTGGATCT
B18: fbpA (dsDNA)
DNA 1: ATACTGACAGCAAGATCACAATTGAGCC
DNA 2: GGCTCAATTGTGATCTTGCTGTCAGTAT
B19: fadD21 (dsDNA)
DNA 1: CCTGTTTCAGCACATGCACAGCATTGCA
DNA 2: TGCAATGCTGTGCATGTGCTGAAACAGG
B20: Rv1217c (dsDNA)
DNA 1: GAGGTCGCAGCCGAGCAACAGGTGGCAA
DNA 2: TTGCCACCTGTTGCTCGGCTGCGACCTC
B21: cadI (dsDNA)
DNA 1: CGGTACACAGCGCTTGCAGGGCTTCAGG
DNA 2: CCTGAAGCCCTGCAAGCGCTGTGTACCG
B22: Rv0964c (dsDNA)
DNA 1: GCGCGCACGGCACACGCACCGCATCGGC
DNA 2: GCCGATGCGGTGCGTGTGCCGTGCGCGC
B23: cfp2 (dsDNA)
DNA 1: TCGCTCACAGCTACGACACAGACTTGCC
DNA 2: GGCAAGTCTGTGTCGTAGCTGTGAGCGA
B24: ptrBa -162 (dsDNA)
DNA 1: TTGTCCGCAGCTGGCTCACCGGCTCCGA
DNA 2: TCGGAGCCGGTGAGCCAGCTGCGGACAA
B25: Rv0520 (dsDNA)
DNA 1: GCCCGCACAGCCACGCCGTAGCACCGGC
DNA 2: GCCGGTGCTACGGCGTGGCTGTGCGGGC
B26: Rv3143 (dsDNA)
DNA 1: AACCGCACAGCCCTCTAACCACTGCTCG
DNA 2: CGAGCAGTGGTTAGAGGGCTGTGCGGTT
B27: Rv2633c (dsDNA)
DNA 1: TGATTCACAGCTACCTCACATTAATGGG
DNA 2: CCCATTAATGTGAGGTAGCTGTGAATCA
B28: cdh (dsDNA)
DNA 1: GCGAGCAGGGCTGCCGCACAGCGATCTT
DNA 2: AAGATCGCTGTGCGGCAGCCCTGCTCGC
B29: espA -215 (dsDNA)
DNA 1: CGCATTGTCGCAGCGCAGTTGCAGGAGGGCAA
DNA 2: TTGCCCTCCTGCAACTGCGCTGCGACAATGCG
B30: icl -350 (dsDNA)
DNA 1: GGTTGGTCGACCGCGCTGTTACAACGCTCAC
DNA 2: GTGAGCGTTGTAACAGCGCGGTCGACCAACC
B31: Rv1639c (dsDNA)
DNA 1: CGGATCACAGGAAACCCCCAACAAATCA
DNA 2: TGATTTGTTGGGGGTTTCCTGTGATCCG
B32: phoP -55 (dsDNA)
DNA 1: AGACTACTGGCAACGAGCTTTCAGGAATTACAC
DNA 2: GTGTAATTCCTGAAAGCTCGTTGCCAGTAGTCT
B33: icl -400 (dsDNA)
DNA 1: TCATCTCCCACGTTCACCCGGCTGGTTCG
DNA 2: CGAACCAGCCGGGTGAACGTGGGAGATGA
B34: ptrBa -244 (dsDNA)
DNA 1: ATCTTCACACCGGACTCGTCGCGGTACT
DNA 2: AGTACCGCGACGAGTCCGGTGTGAAGAT
B35: pks2 (dsDNA)
DNA 1: AAAGACACAGCTACATCGAAGGATTGCT
DNA 2: AGCAATCCTTCGATGTAGCTGTGTCTTT
B36: icl -343 (dsDNA)
DNA 1: GACCGCGCTGTTACAACGCTCACATATGTGG
DNA 2: CCACATATGTGAGCGTTGTAACAGCGCGGTC
B37: fas (dsDNA)
DNA 1: CGGCGTAGAGCGAATTCCCAGCATAACG
DNA 2: CGTTATGCTGGGAATTCGCTCTACGCCG
B38: pks3 -236 (dsDNA)
DNA 1: CGACGTCTGGTAGCGGCATGGCAACGGCCTGTG
DNA 2: CACAGGCCGTTGCCATGCCGCTACCAGACGTCG
B39: umaA (dsDNA)
DNA 1: TGACGCAAGGCGAGATCACAGACCGAGA
DNA 2: TCTCGGTCTGTGATCTCGCCTTGCGTCA
B40: icl -301 (dsDNA)
DNA 1: CCCAAGGCAGTCGCCTCGCTGTTCAATCTGT
DNA 2: ACAGATTGAACAGCGAGGCGACTGCCTTGGG
B41: lipF -572 (dsDNA)
DNA 1: AGACGTACAGCAAACTCCCAGTCATACA
DNA 2: TGTATGACTGGGAGTTTGCTGTACGTCT
B42: PPE50 (dsDNA)
DNA 1: CTTTTCACAGCAAAGTCCCAGAAATGGC
DNA 2: GCCATTTCTGGGACTTTGCTGTGAAAAG
B43: PE8 (dsDNA)
DNA 1: CAGATCACACCGCCATGTCAGCCGCCAA
DNA 2: TTGGCGGCTGACATGGCGGTGTGATCTG
B44: phoP -42 (dsDNA)
DNA 1: ACGAGCTTTCAGGAATTACACAATGACTGTG
DNA 2: CACAGTCATTGTGTAATTCCTGAAAGCTCGT
B45: phoP -64 (dsDNA)
DNA 1: GACTGTTAGCAGACTACTGGCAACGAGCTTTC
DNA 2: GAAAGCTCGTTGCCAGTAGTCTGCTAACAGTC
B46: Rv2331 (dsDNA)
DNA 1: GTCCTCGCAGCAAGAAAACAGCGAAAGC
DNA 2: GCTTTCGCTGTTTTCTTGCTGCGAGGAC

The target in the data set is PhoP (Mycobacterium tuberculosis, UniProt P71814 1-247). Put plainly: ITC. (Isothermal titration calorimetry measures the heat released or taken up as one component is titrated into another.)
For B1, the Kd worked out at 51.5 ± 4.3 nM.

Turning to B2, the binding result is recorded as “no binding”.

B3 had a Kd of 637 ± 16 nM.

As to B4, the binding result was “no binding”.

Take B5: the binding result is reported as “no binding”.

As for B6, the Kd was found to be 332 ± 17 nM.

Take B7: the binding result is reported as “no binding”.

Molecule B8 gave a Kd of 160 ± 8 nM.

As for B9, the binding result was “no binding”.

On to B10, for which the binding result is on record as “no binding”.

B11 displayed a dissociation constant (Kd) of 714 ± 51 nM.

For B12, the binding result was “no binding”.

Consider B13, for which the binding result was “no binding”.

Regarding B14, the binding result was “no binding”.

As to B15, the equilibrium dissociation constant (Kd) was 1150 ± 66 nM.

In turn, B16 came in with an equilibrium dissociation constant (Kd) of 1160 ± 41 nM.

B17: the binding result is listed as “no binding”.

In the case of B18, the Kd was determined as 56.5 ± 2.6 nM.

B19 displayed a Kd of 50.3 ± 4.3 nM.

Molecule B20 showed a dissociation constant Kd of 588 ± 17 nM.

In the case of B21, the dissociation constant (Kd) was 403 ± 20 nM.

The molecule B22 gave an equilibrium dissociation constant (Kd) of 4350 ± 189 nM.

On to B23, for which binding was put at a Kd of 21.4 ± 1.6 nM.

As for B24, the Kd is 980 ± 77 nM.

In turn, B25 showed a Kd of 472 ± 20 nM.

For the molecule B26, the binding result is recorded as “no binding”.

With B27, the Kd was 37 ± 3.7 nM.

The molecule B28 gave a Kd of 935 ± 52 nM.

B29 showed a dissociation constant (Kd) of 1590 ± 50 nM.

For the molecule B30, the binding result is “no binding”.

For the molecule B31, the affinity, expressed as Kd, was 198 ± 12 nM.

B32: the Kd worked out at 104 ± 10 nM.

As for B33, the binding result was “no binding”.

B34: the binding result is given as “no binding”.

On to B35, for which the Kd was determined as 154 ± 12 nM.

For B36, the binding result is listed as “no binding”.

The molecule B37 showed a Kd of 144 ± 6 nM.

Take B38: the Kd came to 130 ± 11 nM.

B39: the Kd was 1200 ± 58 nM.

Take B40: the binding result was “no binding”.

With B41, the dissociation constant Kd was 115 ± 8 nM.

Consider B42, for which binding was put at a Kd of 45.7 ± 1.7 nM.

Regarding B43, the binding result was “no binding”.

Take B44: the binding result was “no binding”.

Take B45: the binding result is “no binding”.

Regarding B46, binding was put at a Kd of 130 ± 6.1 nM.
